Data from US20100285988A1 (published 2010).

What follows are binders tested against γ-secretase (human; HeLa cell membrane / solubilized HeLa membrane; endogenous in HEK293 cells) (human, UniProt P49768 1-467; Q92542 34-709; Q9NZ42 1-101; Q96BI3 1-265).

Row | Binder | IC50 [nM]
1 | LVFFAGD [Aβ17-23 heptapeptide with the Arctic mutation (E22G)] | 3890
2 | LVFFAEN [Aβ17-23 heptapeptide with the Iowa mutation (D23N)] | 2940

Now from value to binder:

Row | IC50 [nM] | Binder
3 | 2130 | LVFFAKD [Aβ17-23 heptapeptide with the Italian mutation (E22K)]
4 | 2120 | LVFFAQD [Aβ17-23 heptapeptide with the Dutch mutation (E22Q)]
5 | 5270 | LVFFGED [Aβ17-23 heptapeptide with the Flemish mutation (A21G)]
